{"source": "patent US20240270828A1", "about": "(UAB RESEARCH FOUNDATION, published 2024)", "binders": {"B1": {"name": "1249A8 (antibody, V domains shown)", "VH": "QVQLVQSGAEVKKPGASMKVSCKASGFTFTDYYMHWVRQAPRQGLEWMGLINPSGSGTAYAQNFQGRVTLARDTSTSTLYMEMGSLTSDDTAVYYCARMDSSGSYDHWGQGTLVTVSS", "VL": "ETTLTQSPGTLSLSPGDRATLSCRASQTIRISYLAWYQQKPGQAPRLLVYGPSIRATGIPDRFSARGSGTDFTLTISRLEPEDFAVYYCQHYGSSPPRYTFGQGTKLEIK"}}, "key": {"SARS-CoV Spike protein [1]": {"target": "T1, SARS-CoV Spike protein (SARS-CoV, UniProt P59594 14-1195)"}, "[2]": {"target": "T2, SARS-CoV-2 S2 (40590-V08B, Sino Biological) (SARS-CoV-2, UniProt P0DTC2 686-1213)", "T2 construct": "domain: S2", "experiment": "ELISA on coated protein, anti-human IgG-HRP; AUC of the OD"}, "[3]": {"target": "T3, SARS-CoV-2 S1+S2 (40589-V08B1, Sino Biological) (SARS-CoV-2, UniProt P0DTC2 16-1213)", "experiment": "ELISA on coated protein, anti-human IgG-HRP; AUC of the OD"}, "[4]": {"target": "T4, SARS-CoV-2 S1 (40591-V08H3, Sino Biological) (SARS-CoV-2, UniProt P0DTC2 16-685)", "T4 construct": "domain: S1", "experiment": "ELISA on coated protein, anti-human IgG-HRP; AUC of the OD"}, "[5]": {"target": "T5, MERS-CoV S2 (Sino Biological, 40070-V08) (MERS-CoV, UniProt K9N5Q8 726-1296)", "T5 sequence": "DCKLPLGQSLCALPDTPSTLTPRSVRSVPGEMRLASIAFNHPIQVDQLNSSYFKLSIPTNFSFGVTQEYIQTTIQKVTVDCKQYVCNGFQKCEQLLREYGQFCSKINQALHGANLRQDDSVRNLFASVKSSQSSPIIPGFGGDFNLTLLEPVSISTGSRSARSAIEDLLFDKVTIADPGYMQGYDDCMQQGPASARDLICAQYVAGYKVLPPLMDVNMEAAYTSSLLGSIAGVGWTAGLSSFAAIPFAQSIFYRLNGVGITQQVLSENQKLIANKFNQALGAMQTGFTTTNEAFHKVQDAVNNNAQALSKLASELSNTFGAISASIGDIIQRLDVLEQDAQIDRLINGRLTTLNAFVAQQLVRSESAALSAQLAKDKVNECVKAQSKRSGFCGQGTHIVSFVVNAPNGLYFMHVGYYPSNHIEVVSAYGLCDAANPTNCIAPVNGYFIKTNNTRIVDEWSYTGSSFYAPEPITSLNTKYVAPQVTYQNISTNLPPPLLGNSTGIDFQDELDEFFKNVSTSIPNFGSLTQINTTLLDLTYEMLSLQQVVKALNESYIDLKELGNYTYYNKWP", "experiment": "SPR/BLI, method not told apart"}, "SARS-CoV Spike protein [6]": {"target": "T1, SARS-CoV Spike protein", "experiment": "SPR/BLI, method not told apart"}, "[7]": {"target": "T6, OC43 S2 (40607-V08B1, Sino Biological) (HCoV-OC43, UniProt P36334 759-1297)", "T6 construct": "domain: S2", "T6 sequence": "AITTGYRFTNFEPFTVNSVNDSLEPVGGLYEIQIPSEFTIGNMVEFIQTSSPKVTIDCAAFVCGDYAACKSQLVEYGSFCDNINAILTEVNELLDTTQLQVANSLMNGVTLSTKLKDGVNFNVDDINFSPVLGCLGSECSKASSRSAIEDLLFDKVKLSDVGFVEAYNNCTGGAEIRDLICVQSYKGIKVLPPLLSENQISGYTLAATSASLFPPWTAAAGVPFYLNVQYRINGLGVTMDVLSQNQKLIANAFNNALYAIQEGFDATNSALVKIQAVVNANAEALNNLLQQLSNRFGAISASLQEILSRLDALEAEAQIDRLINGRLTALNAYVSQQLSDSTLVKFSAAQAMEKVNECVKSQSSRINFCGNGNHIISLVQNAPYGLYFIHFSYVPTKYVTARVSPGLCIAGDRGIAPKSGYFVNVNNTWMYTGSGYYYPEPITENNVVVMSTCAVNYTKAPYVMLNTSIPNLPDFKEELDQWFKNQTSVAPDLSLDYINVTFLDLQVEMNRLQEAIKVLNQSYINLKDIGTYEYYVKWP", "experiment": "ELISA titration of 1249A8 on coated Spike proteins, mean Abs at 450 nm"}, "[8]": {"target": "T5, MERS-CoV S2 (Sino Biological, 40070-V08)", "experiment": "BLI, mAb on anti-human Fc biosensor, MERS Spike protein in solution"}, "[9]": {"target": "Spike of live SARS-CoV-2 WT virus (SARS-CoV-2, UniProt P0DTC2 14-1273)", "experiment": "cell-based or functional assay"}, "[10]": {"target": "T2, SARS-CoV-2 S2 (40590-V08B, Sino …)", "experiment": "ELISA, hmAb at 10 and 1 ug/ml in duplicate; AUC"}, "[11]": {"target": "T3, SARS-CoV-2 S1+S2 (40589-V08B1, Sino …)", "experiment": "ELISA, hmAb at 10 and 1 ug/ml in duplicate; AUC"}, "[12]": {"target": "T4, SARS-CoV-2 S1 (40591-V08H3, Sino …)", "experiment": "ELISA, hmAb at 10 and 1 ug/ml in duplicate; AUC"}}, "note": "Read-outs that look alike come from different tables or passages of the source.", "data": [{"binder": "B1", "values": [{"measurement": "Kd", "setting": "SARS-CoV Spike protein [1]", "value": 3.15, "unit": "nM"}, {"measurement": "Binding AUC", "setting": "[2]", "value": 28.2}, {"measurement": "Binding AUC", "setting": "[3]", "value": 24.8}, {"measurement": "Binding AUC", "setting": "[4]", "value": 1.4}, {"measurement": "Kd", "setting": "[5]", "value": 0.58, "unit": "nM"}, {"measurement": "Kd", "setting": "SARS-CoV Spike protein [6]", "value": 3.2, "unit": "nM"}, {"measurement": "binding result", "setting": "[7]", "value": "binds"}, {"measurement": "Kd", "setting": "[8]", "value": 0.56, "unit": "nM"}, {"measurement": "Neutralization IC50 (µg/ml), Live Virus WT", "setting": "[9]", "value": 1.77, "unit": "µg/mL"}, {"measurement": "Binding AUC", "setting": "[10]", "value": 28.2}, {"measurement": "Binding AUC", "setting": "[11]", "value": 24.8}, {"measurement": "Binding AUC", "setting": "[12]", "value": 1.4}, {"measurement": "binding result", "setting": "[12]", "value": "no binding (tested: 10 ug/ml)"}]}]}
